Numbered stars: 1 amine (or outer) side, 2 acyl side, 3 side chain; on linkers, the order of the positions; unused ones are H or OH. Square brackets hold non-standard residues; d marks the D form. Side chains are listed from the residue outwards. Ends that are not written are not given here. * marks the point of attachment. Phe(4-CH2NH2) = NCc1ccc(C[C@H](N)C(=O)O)cc1; C18 diacid = O=C(O)CCCCCCCCCCCCCCCCC(=O)*; αMeW = C[C@](N)(Cc1c[nH]c2ccccc12)C(=O)O; C16 diacid = O=C(O)CCCCCCCCCCCCCCC(=O)*; γGlu = O=C(O)[C@H](CCC(=O)[*:2])N[*:1]; Met(O2) = CS(=O)(=O)CC[C@H](N)C(=O)O; αMeD = C[C@](N)(CC(=O)O)C(=O)O; AEEA = NCCOCCOCC(=O)O; Aib = CC(C)(N)C(=O)O
Assays:
[1] = target: human Glucagon receptor (GCGR) (human, UniProt P47871 26-477); assay: cell-based or functional assay
[2] = target: human GLP-1 receptor (GLP1R) (human, UniProt P43220 24-463); assay: cell-based or functional assay

human Glucagon receptor (GCGR), sequence (P47871 26-477): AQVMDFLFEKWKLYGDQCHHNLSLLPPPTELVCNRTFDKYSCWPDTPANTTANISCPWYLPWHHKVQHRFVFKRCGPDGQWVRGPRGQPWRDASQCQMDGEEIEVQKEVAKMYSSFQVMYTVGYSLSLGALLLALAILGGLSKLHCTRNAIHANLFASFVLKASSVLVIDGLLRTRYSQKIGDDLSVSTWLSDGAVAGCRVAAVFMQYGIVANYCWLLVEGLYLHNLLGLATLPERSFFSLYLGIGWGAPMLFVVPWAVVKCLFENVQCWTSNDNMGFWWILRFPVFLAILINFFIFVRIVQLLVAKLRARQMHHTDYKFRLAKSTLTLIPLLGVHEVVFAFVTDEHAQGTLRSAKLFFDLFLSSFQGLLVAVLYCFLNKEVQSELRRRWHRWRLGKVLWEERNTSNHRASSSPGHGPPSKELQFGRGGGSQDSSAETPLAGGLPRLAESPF

B1: TP627 (peptide)
peptide: H[Aib]QGTFTSDYSKYLDARAAK([AEEA-γGlu-C16 diacid])DFVQWL[Met(O2)][αMeD]T-NH2
modifications: N-terminus assumed
SMILES: CC(C)C[C@H](NC(=O)[C@H](Cc1ccc(O)cc1)NC(=O)[C@H](CCCCN)NC(=O)[C@H](CO)NC(=O)[C@H](Cc1ccc(O)cc1)NC(=O)[C@H](CC(=O)O)NC(=O)[C@H](CO)NC(=O)[C@@H](NC(=O)[C@H](Cc1ccccc1)NC(=O)[C@@H](NC(=O)CNC(=O)[C@H](CCC(N)=O)NC(=O)C(C)(C)NC(=O)[C@@H](N)Cc1c[nH]cn1)[C@@H](C)O)[C@@H](C)O)C(=O)N[C@@H](CC(=O)O)C(=O)N[C@@H](C)C(=O)N[C@@H](CCCNC(=N)N)C(=O)N[C@@H](C)C(=O)N[C@@H](C)C(=O)N[C@@H](CCCCNC(=O)COCCOCCNC(=O)CC[C@H](NC(=O)CCCCCCCCCCCCCCC(=O)O)C(=O)O)C(=O)N[C@@H](CC(=O)O)C(=O)N[C@@H](Cc1ccccc1)C(=O)N[C@H](C(=O)N[C@@H](CCC(N)=O)C(=O)N[C@@H](Cc1c[nH]c2ccccc12)C(=O)N[C@@H](CC(C)C)C(=O)N[C@@H](CCS(C)(=O)=O)C(=O)N[C@@](C)(CC(=O)O)C(=O)N[C@H](C(N)=O)[C@@H](C)O)C(C)C
- GCGR EC50 human [1]: 0.14 nM
- GLP1R EC50 human [2]: 0.25 nM

B2: TP626 (peptide)
peptide: H[Aib]QGTFTSDYSKYLDARAAK([AEEA-γGlu-C18 diacid])DFVQWL[Met(O2)]DT-NH2
modifications: N-terminus assumed
SMILES: CC(C)C[C@H](NC(=O)[C@H](Cc1ccc(O)cc1)NC(=O)[C@H](CCCCN)NC(=O)[C@H](CO)NC(=O)[C@H](Cc1ccc(O)cc1)NC(=O)[C@H](CC(=O)O)NC(=O)[C@H](CO)NC(=O)[C@@H](NC(=O)[C@H](Cc1ccccc1)NC(=O)[C@@H](NC(=O)CNC(=O)[C@H](CCC(N)=O)NC(=O)C(C)(C)NC(=O)[C@@H](N)Cc1c[nH]cn1)[C@@H](C)O)[C@@H](C)O)C(=O)N[C@@H](CC(=O)O)C(=O)N[C@@H](C)C(=O)N[C@@H](CCCNC(=N)N)C(=O)N[C@@H](C)C(=O)N[C@@H](C)C(=O)N[C@@H](CCCCNC(=O)COCCOCCNC(=O)CC[C@H](NC(=O)CCCCCCCCCCCCCCCCC(=O)O)C(=O)O)C(=O)N[C@@H](CC(=O)O)C(=O)N[C@@H](Cc1ccccc1)C(=O)N[C@H](C(=O)N[C@@H](CCC(N)=O)C(=O)N[C@@H](Cc1c[nH]c2ccccc12)C(=O)N[C@@H](CC(C)C)C(=O)N[C@@H](CCS(C)(=O)=O)C(=O)N[C@@H](CC(=O)O)C(=O)N[C@H](C(N)=O)[C@@H](C)O)C(C)C
- GCGR EC50 human [1]: 0.39 nM
- GLP1R EC50 human [2]: 0.77 nM

B3: TP625 (peptide)
peptide: H[Aib]QGTFTSD[Phe(4-CH2NH2)]([AEEA-AEEA-γGlu-C18 diacid])SKYLDARAAQDFVQ[αMeW]L[Met(O2)]DT-NH2
modifications: N-terminus assumed
SMILES: CC(C)C[C@H](NC(=O)[C@H](Cc1ccc(O)cc1)NC(=O)[C@H](CCCCN)NC(=O)[C@H](CO)NC(=O)[C@H](Cc1ccc(CNC(=O)COCCOCCNC(=O)COCCOCCNC(=O)CC[C@H](NC(=O)CCCCCCCCCCCCCCCCC(=O)O)C(=O)O)cc1)NC(=O)[C@H](CC(=O)O)NC(=O)[C@H](CO)NC(=O)[C@@H](NC(=O)[C@H](Cc1ccccc1)NC(=O)[C@@H](NC(=O)CNC(=O)[C@H](CCC(N)=O)NC(=O)C(C)(C)NC(=O)[C@@H](N)Cc1c[nH]cn1)[C@@H](C)O)[C@@H](C)O)C(=O)N[C@@H](CC(=O)O)C(=O)N[C@@H](C)C(=O)N[C@@H](CCCNC(=N)N)C(=O)N[C@@H](C)C(=O)N[C@@H](C)C(=O)N[C@@H](CCC(N)=O)C(=O)N[C@@H](CC(=O)O)C(=O)N[C@@H](Cc1ccccc1)C(=O)N[C@H](C(=O)N[C@@H](CCC(N)=O)C(=O)N[C@@](C)(Cc1c[nH]c2ccccc12)C(=O)N[C@@H](CC(C)C)C(=O)N[C@@H](CCS(C)(=O)=O)C(=O)N[C@@H](CC(=O)O)C(=O)N[C@H](C(N)=O)[C@@H](C)O)C(C)C
- GCGR EC50 human [1]: 1.3 nM
- GLP1R EC50 human [2]: 0.39 nM

Binder: H[Aib]QGTFTSDYSKYLDARAAK([AEEA-γGlu-C20‑OH])DFVQWL[Met(O2)][αMeD]T-NH2 [TP629]
- GCGR EC50 human [1]: 3.17 nM
- GLP1R EC50 human [2]: 2.23 nM

B4: TP624 (peptide)
peptide: H[Aib]QGTFTSD[Phe(4-CH2NH2)]([AEEA-AEEA-γGlu-C18 diacid])SKYLDARAAQDFVQWL[Met(O2)][αMeD]T-NH2
modifications: N-terminus assumed
SMILES: CC(C)C[C@H](NC(=O)[C@H](Cc1ccc(O)cc1)NC(=O)[C@H](CCCCN)NC(=O)[C@H](CO)NC(=O)[C@H](Cc1ccc(CNC(=O)COCCOCCNC(=O)COCCOCCNC(=O)CC[C@H](NC(=O)CCCCCCCCCCCCCCCCC(=O)O)C(=O)O)cc1)NC(=O)[C@H](CC(=O)O)NC(=O)[C@H](CO)NC(=O)[C@@H](NC(=O)[C@H](Cc1ccccc1)NC(=O)[C@@H](NC(=O)CNC(=O)[C@H](CCC(N)=O)NC(=O)C(C)(C)NC(=O)[C@@H](N)Cc1c[nH]cn1)[C@@H](C)O)[C@@H](C)O)C(=O)N[C@@H](CC(=O)O)C(=O)N[C@@H](C)C(=O)N[C@@H](CCCNC(=N)N)C(=O)N[C@@H](C)C(=O)N[C@@H](C)C(=O)N[C@@H](CCC(N)=O)C(=O)N[C@@H](CC(=O)O)C(=O)N[C@@H](Cc1ccccc1)C(=O)N[C@H](C(=O)N[C@@H](CCC(N)=O)C(=O)N[C@@H](Cc1c[nH]c2ccccc12)C(=O)N[C@@H](CC(C)C)C(=O)N[C@@H](CCS(C)(=O)=O)C(=O)N[C@@](C)(CC(=O)O)C(=O)N[C@H](C(N)=O)[C@@H](C)O)C(C)C
- GCGR EC50 human [1]: 1 nM
- GLP1R EC50 human [2]: 0.89 nM

Reference: patent US20200270325A1 (Merck Sharp & Dohme, published 2020)
